Measurements reported in US20240150495A1.

Key:
[1] = molecular target: human ανβ3 integrin (Chemicon) (human) (UniProt P06756); test: ELISA on coated human ανβ3 integrin (1 ug/ml), binder at 0.010 µg/ml; positive control
[2] = molecular target: human ανβ3 integrin (Chemicon) (human) (UniProt P06756); test: ELISA on coated human ανβ3 integrin (1 ug/ml), binder at 0.002 µg/ml; positive control
[3] = molecular target: human ανβ3 integrin (Chemicon) (human) (UniProt P06756); test: ELISA on coated human ανβ3 integrin (1 ug/ml), binder at 0.039 µg/ml; positive control
[4] = molecular target: human ανβ3 integrin (Chemicon) (human) (UniProt P06756); test: ELISA on coated human ανβ3 integrin (1 ug/ml), binder at 2.500 µg/ml; positive control
[5] = molecular target: human ανβ3 integrin (Chemicon) (human) (UniProt P06756); test: ELISA on coated human ανβ3 integrin (1 ug/ml), binder at 0.625 µg/ml; positive control
[6] = molecular target: human ανβ3 integrin (Chemicon) (human) (UniProt P06756); test: ELISA on coated human ανβ3 integrin (1 ug/ml), binder at 10 µg/ml; positive control
[7] = molecular target: human ανβ3 integrin (Chemicon) (human) (UniProt P06756); test: ELISA on coated human ανβ3 integrin (1 ug/ml), binder at 0.156 µg/ml; positive control

Chain of human ανβ3 integrin (Chemicon) (human) (P06756 31-1048 limits assumed, chain 1 of 2): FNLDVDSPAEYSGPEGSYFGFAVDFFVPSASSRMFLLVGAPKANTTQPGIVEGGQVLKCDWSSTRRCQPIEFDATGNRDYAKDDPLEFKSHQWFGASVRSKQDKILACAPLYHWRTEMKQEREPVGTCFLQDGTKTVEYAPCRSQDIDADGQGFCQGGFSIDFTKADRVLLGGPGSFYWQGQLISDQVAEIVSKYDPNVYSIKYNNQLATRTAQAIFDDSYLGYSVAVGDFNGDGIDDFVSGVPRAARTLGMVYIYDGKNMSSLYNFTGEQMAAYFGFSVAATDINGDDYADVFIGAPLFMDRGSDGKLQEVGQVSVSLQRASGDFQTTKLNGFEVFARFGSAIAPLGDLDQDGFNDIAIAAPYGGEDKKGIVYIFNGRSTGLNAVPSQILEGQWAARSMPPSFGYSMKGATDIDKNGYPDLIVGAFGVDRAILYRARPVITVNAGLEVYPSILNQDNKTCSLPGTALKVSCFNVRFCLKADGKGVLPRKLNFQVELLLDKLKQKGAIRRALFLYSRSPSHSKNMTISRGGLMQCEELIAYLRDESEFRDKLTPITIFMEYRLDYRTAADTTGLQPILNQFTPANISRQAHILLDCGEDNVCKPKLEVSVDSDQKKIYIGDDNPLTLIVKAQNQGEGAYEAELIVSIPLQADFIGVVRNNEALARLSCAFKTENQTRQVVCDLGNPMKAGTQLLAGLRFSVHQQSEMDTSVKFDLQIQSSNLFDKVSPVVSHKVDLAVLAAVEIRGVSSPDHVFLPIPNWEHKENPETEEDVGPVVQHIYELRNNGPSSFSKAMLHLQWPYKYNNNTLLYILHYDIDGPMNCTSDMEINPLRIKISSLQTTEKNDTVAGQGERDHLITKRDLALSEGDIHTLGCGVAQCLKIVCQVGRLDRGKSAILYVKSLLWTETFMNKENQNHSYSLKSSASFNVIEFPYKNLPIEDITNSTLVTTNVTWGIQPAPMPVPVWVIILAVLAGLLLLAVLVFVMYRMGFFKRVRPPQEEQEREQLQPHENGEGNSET
Chain of human ανβ3 integrin (Chemicon) (human) (P05106 27-788 limits assumed, chain 2 of 2, further chain): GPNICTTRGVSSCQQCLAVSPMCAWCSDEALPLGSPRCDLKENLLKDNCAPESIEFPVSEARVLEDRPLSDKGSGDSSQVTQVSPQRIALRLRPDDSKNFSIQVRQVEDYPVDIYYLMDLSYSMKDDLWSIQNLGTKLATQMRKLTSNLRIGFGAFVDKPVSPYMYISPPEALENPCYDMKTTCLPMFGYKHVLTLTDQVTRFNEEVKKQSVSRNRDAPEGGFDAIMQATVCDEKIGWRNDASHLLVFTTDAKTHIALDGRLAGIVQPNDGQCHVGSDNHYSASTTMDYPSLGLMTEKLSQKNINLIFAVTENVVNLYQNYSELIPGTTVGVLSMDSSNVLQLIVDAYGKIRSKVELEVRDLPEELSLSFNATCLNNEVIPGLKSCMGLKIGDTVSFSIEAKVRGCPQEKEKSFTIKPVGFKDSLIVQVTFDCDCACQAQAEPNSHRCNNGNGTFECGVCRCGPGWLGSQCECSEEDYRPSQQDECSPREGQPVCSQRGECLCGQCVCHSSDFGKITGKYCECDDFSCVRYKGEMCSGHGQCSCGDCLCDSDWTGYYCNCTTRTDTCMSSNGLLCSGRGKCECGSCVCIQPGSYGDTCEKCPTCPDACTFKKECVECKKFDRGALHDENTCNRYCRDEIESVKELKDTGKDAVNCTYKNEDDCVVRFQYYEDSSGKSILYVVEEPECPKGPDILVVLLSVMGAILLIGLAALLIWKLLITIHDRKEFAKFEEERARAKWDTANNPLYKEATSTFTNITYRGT

OD 450 [1]: 0.157 OD 450 | OD 450 [2]: 0.077 OD 450 | OD 450 [3]: 0.391 OD 450 | OD 450 [4]: 0.644 OD 450 | OD 450 [5]: 0.657 OD 450 | OD 450 [6]: 0.647 OD 450 | OD 450 [7]: 0.626 OD 450
Substance: commercial mouse anti human ανβ3 integrin mAb LM609 (Chemicon) (antibody)
